Laboratory results published in the supplement of paper PMC11246515.
± gives the standard deviation of the averaged measurements.

Assay: total protein half-life in vivo (active degradation + dilution); higher = more stable protein
[1] = E. coli NCM3722 delta-clpP delta-lon delta-hslV, growth: N-lim chemostat, doubling time 6 h
[2] = E. coli NCM3722 delta-clpP, growth: N-lim chemostat, doubling time 6 h
[3] = E. coli NCM3722 delta-hslV, growth: N-lim chemostat, doubling time 6 h
[4] = E. coli NCM3722 delta-lon, growth: N-lim chemostat, doubling time 6 h
[5] = E. coli NCM3722 delta-smpB, growth: N-lim chemostat, doubling time 6 h
[6] = wild type E. coli NCM3722, growth: C-lim chemostat, doubling time 3 h
[7] = wild type E. coli NCM3722, growth: C-lim chemostat, doubling time 6 h
[8] = wild type E. coli NCM3722, growth: C-lim chemostat, doubling time 12 h
[9] = wild type E. coli NCM3722, growth: N-lim chemostat, doubling time 6 h
[10] = wild type E. coli NCM3722, growth: N-lim chemostat, doubling time 12 h
[11] = wild type E. coli NCM3722, growth: P-lim chemostat, doubling time 6 h
[12] = wild type E. coli NCM3722, growth: P-lim chemostat, doubling time 12 h

Sequence	total protein half-life in vivo [1]	total protein half-life in vivo [2]	total protein half-life in vivo [3]	total protein half-life in vivo [4]	total protein half-life in vivo [5]	total protein half-life in vivo [6]	total protein half-life in vivo [7]	total protein half-life in vivo [8]	total protein half-life in vivo [9]	total protein half-life in vivo [10]	total protein half-life in vivo [11]	total protein half-life in vivo [12]
MKTERILGALYGQALGDAMGMPSELWPRSRVKAHFGWIDRFLPGPKENNAACYFNRAEFTDDTSMALCLADALLEREGKIDPDLIGRNILDWALRFDAFNKNVLGPTSKIALNAIRDGKPVAELENNGVTNGAAMRVSPLGCLLPARDVDSFIDDVALASSPTHKSDLAVAGAVVIAWAISRAIDGESWSAIVDSLPSIARHAQQKRITTFSASLAARLEIALKIVRNADGTESASEQLYQVVGAGTSTIESVPCAIALVELAQTDPNRCAVLCANLGGDTDTIGAMATAICGALHGVNAIDPALKAELDAVNQLDFNRYATALAKYRQQREAV	4.09 ± 0.27 h	3.33 ± 0.15 h	3.21 ± 0.037 h	3.64 ± 0.55 h	3.4389 ± 0.00072 h	2.89 ± 0.35 h	5.04 ± 0.58 h	9.45 ± 0.66 h	3.36 ± 0.19 h	4.91 ± 0.38 h	5.45 ± 0.4 h	10.4 ± 0.37 h
MKTFFRTVLFGSLMAVCANSYALSESEAEDMADLTAVFVFLKNDCGYQNLPNGQIRRALVFFAQQNQWDLSNYDTFDMKALGEDSYRDLSGIGIPVAKKCKALARDSLSLLAYVK [P0AA95]	3.21 ± 0.054 h	3.39 ± 0.072 h	6.81 h	2.74 h	3.47 ± 0.12 h	–	3.61 ± 0.71 h	4.74 h	3.1 ± 0.091 h	5.56 ± 1.2 h	3.21 ± 0.85 h	5.86 ± 0.72 h
MKTFPLQSLTIIEAQQKQFALVDSICRHFPGSEFLTGGDLGLTPGLNQPRVTQRVEQVLADAFHAQAAALVQGAGTGAIRAGLAALLKPGQRLLVHDAPVYPTTRVIIEQMGLTLITVDFNDLSALKQVVDEQQPDAALVQHTRQQPQDSYVLADVLATLRAAGVPALTDDNYAVMKVARIGCECGANVSTFSCFKLFGPEGVGAVVGDADVINRIRATLYSGGSQIQGAQALEVLRGLVFAPVMHAVQAGVSERLLALLNGGAVPEVKSAVIANAQSKVLIVEFHQPIAARVLEEAQKRGALPYPVGAESKYEIPPLFYRLSGTFRQANPQSEHCAIRINPNRSGEETVLRILRESIASI	5.7 ± 0.96 h	5.48 h	4.47 h	4.71 h	–	–	–	–	4.59 h	8.25 h	5.35 h	12.4 h
MKTGPLNESELEWLDDILTKYNTDHAILDVAELDGLLTAVLSSPQEIEPEQWLVAVWGGADYVPRWASEKEMTRFMNLAFQHMADTAERLNEFPEQFEPLFGLREVDGSELTIVEEWCFGYMRGVALSDWSTLPDSLKPALEAIALHGTEENFERVEKMSPEAFEESVDAIRLAALDLHAYWMAHPQEKAVQQPIKAEEKPGRNDPCPCGSGKKFKQCCLH [P0AD05]	5.402 ± 0.046 h	5.13 ± 1.1 h	4.22 ± 0.47 h	4.39 ± 0.54 h	3.3 ± 0.53 h	–	5.21 ± 1.5 h	8.89 ± 1.9 h	3.93 ± 0.25 h	5.34 ± 1.1 h	4.67 ± 0.34 h	8.41 ± 0.26 h
MKTIEVDDELYSYIASHTKHIGESASDILRRMLKFSAASQPAAPVTKEVRVASPAIVEAKPVKTIKDKVRAMRELLLSDEYAEQKRAVNRFMLLLSTLYSLDAQAFAEATESLHGRTRVYFAADEQTLLKNGNQTKPKHVPGTPYWVITNTNTGRKCSMIEHIMQSMQFPAELIEKVCGTI [P0AFY8]	6.27 ± 0.64 h	5.709 ± 0.046 h	5.89 ± 0.072 h	5.19 ± 0.16 h	4.27 ± 0.23 h	2.738 ± 0.014 h	4.84 ± 0.89 h	12.7 ± 0.44 h	4.7 ± 0.42 h	8.55 ± 1.1 h	4.71 ± 0.44 h	9.12 ± 0.4 h
MKTIFRYILFLALYSCCNTVSAYTSFIVGNNAGVDNYRGPSTAAQMTFNYTSTASNLVFYKPTQLGPTGVKMYWSYLDTGTGGGILYCNTSGRANPGPITIENAMVYSGKDYGGHKLFNTSVPGLYYTMLISRVWSAYDTITDIQSPGIYIGDPSNQEFFFSVTDSDLQTKGCNKADDYDKFWAIGGIVHNITVEFYTDTNFDPTLNQQVQLSSSSNYLYSFKAYSPGTKVVDHSNHIYVNFTLNNVKLTLPTCFTSILTGPSVNGSTVRMGEYSSGTIKNGASPVPFDISLQNCIRVRNIETKLVTGKVGTQNTQLLGNTLTGSTAAKGVGVLIEGLATSKNPLMTLKPNDTNSVYIDYETEDDTSDGVYPNQGNGTSQPLHFQATLKQDGNIAIEPGEFKATSTFQVTYP	–	–	–	–	4.93 ± 0.34 h	–	–	4.96 h	–	–	–	–
MKTIGLLGGMSWESTIPYYRLINEGIKQRLGGLHSAQVLLHSVDFHEIEECQRRGEWDKTGDILAEAALGLQRAGAEGIVLCTNTMHKVADAIESRCTLPFLHIADATGRAITGAGMTRVALLGTRYTMEQDFYRGRLTEQFSINCLIPEADERAKINQIIFEELCLGQFTEASRAYCAQVIARLAEQGAQGVIFGCTEIGLLVPEERSVLPVFDTAAIHAEDAVAFMLS	–	4.02 ± 0.18 h	4.05 ± 0.27 h	4.84 ± 0.066 h	3.69 ± 0.16 h	2.27 ± 0.064 h	4.43 ± 0.24 h	7.096 ± 0.017 h	3.96 ± 0.22 h	6.72 ± 0.36 h	4.25 ± 0.4 h	8.06 ± 0.15 h
MKTKLNELLEFPTPFTYKVMGQALPELVDQVVEVVQRHAPGDYTPTVKPSSKGNYHSVSITINATHIEQVETLYEELGKIDIVRMVL [P0A8J4]	3.54 ± 1.3 h	2.19 ± 0.44 h	1.24 h	2.23 ± 0.17 h	1.42 ± 0.17 h	2.1 h	2.72 h	3.05 h	1.34 h	1.54 h	2.04 ± 0.064 h	3.43 ± 0.32 h
MKTKVAAIYGKRDVRLRVFELPEITDNELLVSVISDSVCLSTWKAALLGSEHKRVPDDLENHPVITGHECAGVIVEVGKNLTGKYKKGQRFVLQPAMGLPSGYSAGYSYEYFGGNATYMIIPEIAINLGCVLPYHGSYFAAASLAEPMCCIIGAYHANYHTTQYVYEHRMGVKPGGNIALLACAGPMGIGAIDYAINGGIQPSRVVVVDIDDKRLAQVQKLLPVELAASKGIELVYVNTKGMSDPVQMLRALTGDAGFDDIFVYAAVPAVVEMADELLAEDGCLNFFAGPTDKNFKVPFNFYNVHYNSTHVVGTSGGSTDDMKEAIALSATGQLQPSFMVTHIGGLDAVPETVLNLPDIPGGKKLIYNGVTMPLTAIADFAEKGKTDPLFKELARLVEETHGIWNEQAEKYLLAQFGVDIGEAAQ	6.04 ± 0.11 h	–	–	–	–	–	–	–	–	–	–	–
MKTKVILSQQMASAIIAAGQEEAQKNNWSVSIAVADDGGHLLALSRMDDCAPIAAYISQEKARTAALGRRETKGYEEMVNNGRTAFVTAPLLTSLEGGVPVVVDGQIIGAVGVSGLTGAQDAQVAKAAAAVLAK [P0AEQ1]	4.93 ± 0.46 h	4.12 ± 0.23 h	–	4.27 ± 0.26 h	4.21 ± 0.32 h	3.04 ± 0.057 h	5.267 ± 0.02 h	9.62 ± 0.24 h	4.29 ± 0.12 h	5.98 h	5.43 ± 0.44 h	11.6 ± 0.93 h
MKTLATIGDNCVDIYPQLNKAFSGGNAVNVAVYCTRYGIQPGCITWVGDDDYGTKLKQDLARMGVDISHVHTKHGVTAQTQVELHDNDRVFGDYTEGVMADFALSEEDYAWLAQYDIVHAAIWGHAEDAFPQLHAAGKLTAFDFSDKWDSPLWQTLVPHLDFAFASAPQEDETLRLKMKAIVARGAGTVIVTLGENGSIAWDGAQFWRQAPEPVTVIDTMGAGDSFIAGFLCGWSAGMTLPQAIAQGTACAAKTIQYHGAW	5.37 h	3.97 h	4.2 ± 0.26 h	> 8 h	3.48 h	1.68 h	3.27 h	7.21 ± 0.47 h	–	–	–	–
MKTSDNERIKYEITGQAVLQILRMKINFSLQTLIKQLLVMKSAEEDAFRRDLIDSIIRDFSNSDSGGPNRRTATADNKSMFNGKKINRIH	–	–	–	–	–	–	–	–	–	–	–	3.79 h
MKTSLFKSLYFQVLTAIAIGILLGHFYPEIGEQMKPLGDGFVKLIKMIIAPVIFCTVVTGIAGMESMKAVGRTGAVALLYFEIVSTIALIIGLIIVNVVQPGAGMNVDPATLDAKAVAVYADQAKDQGIVAFIMDVIPASVIGAFASGNILQVLLFAVLFGFALHRLGSKGQLIFNVIESFSQVIFGIINMIMRLAPIGAFGAMAFTIGKYGVGTLVQLGQLIICFYITCILFVVLVLGSIAKATGFSIFKFIRYIREELLIVLGTSSSESALPRMLDKMEKLGCRKSVVGLVIPTGYSFNLDGTSIYLTMAAVFIAQATNSQMDIVHQITLLIVLLLSSKGAAGVTGSGFIVLAATLSAVGHLPVAGLALILGIDRFMSEARALTNLVGNGVATIVVAKWVKELDHKKLDDVLNNRAPDGKTHELSS [P0A830]	–	–	3.58 h	–	4.23 h	–	5.59 ± 0.43 h	10.7 ± 0.59 h	5.77 h	–	5.05 h	8.47 h
MKTTAKLSFMMFVEWFIWGAWFVPLWLWLSKSGFSAGEIGWSYACTAIAAILSPILVGSITDRFFSAQKVLAVLMFAGALLMYFAAQQTTFAGFFPLLLAYSLTYMPTIALTNSIAFANVPDVERDFPRIRVMGTIGWIASGLACGFLPQILGYADISPTNIPLLITAGSSALLGVFAFFLPDTPPKSTGKMDIKVMLGLDALILLRDKNFLVFFFCSFLFAMPLAFYYIFANGYLTEVGMKNATGWMTLGQFSEIFFMLALPFFTKRFGIKKVLLLGLVTAAIRYGFFIYGSADEYFTYALLFLGILLHGVSYDFYYVTAYIYVDKKAPVHMRTAAQGLITLCCQGFGSLLGYRLGGVMMEKMFAYQEPVNGLTFNWSGMWTFGAVMIAIIAVLFMIFFRESDNEITAIKVDDRDIALTQGEVK	–	–	–	–	–	–	4.97 ± 0.24 h	9.17 h	–	–	–	–
